What all share (type): biochemical
Data set [1] deals with T1, Lactobacillus leichmannii nucleoside deoxyribosyltransferase (NDT, SEQ ID NO:1) variant PDTT2, R13 Q91 G92 T93 S123 (F13R/E91Q/D92G/V93T/N123S), SEQ ID NO:10 (Lactobacillus leichmannii, UniProt Q9R5V5, D92G/E91Q/F13R/N123S/V93T).
T1 construct: made in house; host or cells: E. coli BLi5 (pET24a NDT plasmid)
T1 sequence (Q9R5V5 2-157 F13R/E91Q/D92G/V93T/N123S): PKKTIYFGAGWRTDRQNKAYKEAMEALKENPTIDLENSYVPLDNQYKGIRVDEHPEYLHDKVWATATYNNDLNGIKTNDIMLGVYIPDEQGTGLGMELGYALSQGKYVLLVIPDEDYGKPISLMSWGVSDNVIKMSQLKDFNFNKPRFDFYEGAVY
The data set is described as follows: Kinetic parameters of PDT variants with deoxycytidine 5'-mono, -di and -triphosphate as donors and adenine as acceptor. Particulars: adenine acceptor. As to the method: (§1) The standard assay (“first protocol for enzyme assay”) for the different NDTs consisted of 5-15 μg of NDT in 50 mM MES buffer pH 6.0, dNxP (dNMP, or dNDP or dNTP) 3 mM and a base 1 mM in a total volume of 50 μL. Assays were incubated for 60 min at 37° C. The products of the reactions were analyzed each 7 min by Rapid resolution high performance liquid chromatography using a reverse-phase column (ZORBAX Eclipse XDB-C18 2.1*50 mm 1.8 μM) with a flow rate of 0.25 ml/min and a linear gradient of 1-12% CH3CN (2-25% CH3CN or 1-90% CH3CN) in 20 mM triethylammonium acetate, pH 7.5, buffer for 7 min. The low resolution mass spectra of the newly synthesized deoxyribonucleotides were obtained on an Agilent 1200 series LC/MS 6120 quadrupole system using an atmospheric electrospray ionization system.
(§2) This hypothesis was confirmed by monitoring the specific activity, in the presence of dCDP or dCTP as donor and adenine as acceptor (see table 2 above). The kinetic parameters were determined for the best variants with dCMP, dCDP and dCTP as substrates, at a concentration of A being fixed (see table 3 below).

Data set [2] concerns the target T2, Lactobacillus leichmannii nucleoside deoxyribosyltransferase (NDT, SEQ ID NO:1) variant PDTT1, R13 G92 T93 S123 K157 (F13R/D92G/V93T/N123S/Y157K), SEQ ID NO:9 (Lactobacillus leichmannii, UniProt Q9R5V5, D92G/F13R/N123S/V93T/Y157K).
T2 construct: homohexamer (108 kDa)
T2 sequence (Q9R5V5 1-157 F13R/D92G/V93T/N123S/Y157K): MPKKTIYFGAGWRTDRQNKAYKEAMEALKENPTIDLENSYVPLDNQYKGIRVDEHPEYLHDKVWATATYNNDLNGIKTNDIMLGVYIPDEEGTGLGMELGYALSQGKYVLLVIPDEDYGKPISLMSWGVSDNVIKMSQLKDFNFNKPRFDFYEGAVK
Described as above. Particulars: adenine acceptor. As to the method: as §1, §2

Substrate in data set [3]: Nc1ncnc2c1ncn2[C@H]1C[C@H](O)[C@@H](COP(=O)(O)OP(=O)(O)OP(=O)(O)O)O1
The experiment in a line: Spectrophotometric assay coupled to xanthine oxidase, dATP + C ⇄ dCTP + A. To be noted: other: PDTT2, 1 mM cytosine, 50 mM MES pH6.0, 37° C., pH 6.0. The procedure:
Further, the cinetic parameters of these mutant enzymes were analysed, using a specific spectrophotometric assay. Briefly, the assay consists in measuring the formation of the final product (2,8 dihydroxyadenine) of the reaction:
Briefly, the assay was performed using the coupling of two enzymes: the variant (PDTT2, PDTT4, PDTT5, PDTT6, or PDTT7) to be tested and xanthine oxidase (obtained from Roche). The reaction mixture contained varying concentrations of dATP, 1 mM cytosine in a 50 mM MES buffer pH6.0 at 37° C. The reaction was initiated by adding 30 units of the purified variant to be tested and xanthine oxidase (Roche). The released adenine was then oxidized in 2,8-dihydroxyadenine which absorbs at 301 nm. The formation (i.e. concentration) of 2,8 dihydroxyadenine was measured by spectrophotometry.

Substrate in data set [4]: Nc1ccn([C@H]2C[C@H](O)[C@@H](COP(=O)(O)O)O2)c(=O)n1
The experiment in a line: Kinetic parameters of PDT variants with deoxycytidine 5'-mono, -di and -triphosphate as donors and adenine as acceptor. To be noted: 37.0 °C; for Km: adenine as acceptor, fixed. The procedure: as §1, §2

Substrate in data set [5]: Nc1ccn([C@H]2C[C@H](O)[C@@H](COP(=O)(O)OP(=O)(O)OP(=O)(O)O)O2)c(=O)n1
The description is as above. Particulars: other: PDTT2; deoxyribose triphosphate transferase; 37.0 °C. The procedure:
as §1, §2

We go through three molecules from patent US9523084B2, “Phosphodeoxyribosyl transferase mutant enzymes and uses thereof” (Centre National De La Recherche Scientifique, priority 2012, dated 2016).

Residue numbers refer to the chain shown, from its start. In names and notes the source's numbering stands.

For orientation: kcat means the maximal rate divided by the concentration of active sites. Regarding `Nc1ccn([C@H]2C[C@H](O)[C@@H](COP(=O)(O)O)O2)c(=O)n1` [dCMP], the kcat amounted to 0.1 s⁻¹ in data set [1] (PDTT2, second line of the table); 1.3 s⁻¹ in data set [1] (PDTT2, third line of the table); 0.08 s⁻¹ in data set [2] (PDTT1, second line of the table); 0.5 s⁻¹ in data set [2] (PDTT1, third line of the table).

B1: Lactobacillus leichmannii nucleoside deoxyribosyltransferase (NDT, SEQ ID NO:1) variant PDTT2, R13 Q91 G92 T93 S123 (F13R/E91Q/D92G/V93T/N123S), SEQ ID NO:10 … (protein)
chain: T2 sequence (Q9R5V5 1-157 F13R/D92G/V93T/N123S/Y157K) with E91Q, K157Y
notes: made in house; host or cells: E. coli BLi5 (pET24a NDT plasmid)
As usually defined, the Km is the substrate concentration at which the rate is half of its maximum. Broadly, the kcat/Km is the turnover number divided by the Michaelis constant. Consider B1, for which, in data set [3], the Km came out at 6.1 mM, the kcat amounted to 12.6 s⁻¹ and the kcat/Km is 2000 M⁻¹ s⁻¹.

B2: Lactobacillus leichmannii nucleoside deoxyribosyltransferase (NDT, SEQ ID NO:1) variant PDTT2, R13 Q91 G92 T93 S123 (F13R/E91Q/D92G/V93T/N123S), SEQ ID NO:10 … (protein)
chain: T1 sequence (Q9R5V5 2-157 F13R/E91Q/D92G/V93T/N123S)
notes: as for B1
As for B2, the kcat in data set [4] (other: PDTT2, first line, adenine acceptor, molecular mass of 108 kDa) amounted to 0.9 s⁻¹. Moreover, the Km was found to be 6 mM in data set [4] (other: PDTT2, first line); 8.7 mM in data set [4] (other: PDTT2, second line of the table); 2 mM in data set [4] (other: PDTT2, third line of the table); 2 mM in data set [5]. In addition, the kcat/Km in data set [5] stood at 668 M⁻¹ s⁻¹.
